Assay results as given in patent US20230192896A1 (BIOVERATIV THERAPEUTICS, published 2023).
Each block holds one binder with its values, some of them ahead of it.

Tests used:
[1] = molecular target: T1, free FIXa (activated Factor IX) (human, UniProt P00740 47-191; P00740 227-461); assay: not stated (FIG. 24B)
T1 construct: BLI antigen bought from Haematologic Technologies (HCIXA-0050); also called factor IXa

[2] = molecular target: T2, FIX zymogen (non-activatable FIX) (human, UniProt P00740 47-461); assay: not stated (FIG. 24B)
T2 construct: also called FIXn; Factor IX zymogen

FX zymogen = molecular target: T3, FX zymogen (Homo sapiens (Human), UniProt P00742 41-179; P00742 183-488); assay: not stated (FIG. 24B)
T3 construct: Light and heavy chain of secreted FX zymogen, disulfide linked; also called Factor X zymogen; factor X zymogen
T3 sequence (P00742 41-179, chain 1 of 2): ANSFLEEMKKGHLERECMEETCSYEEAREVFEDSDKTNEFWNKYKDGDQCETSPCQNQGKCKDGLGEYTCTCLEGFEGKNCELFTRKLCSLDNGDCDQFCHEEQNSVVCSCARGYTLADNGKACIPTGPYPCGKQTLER
T3 sequence (P00742 183-488, chain 2 of 2): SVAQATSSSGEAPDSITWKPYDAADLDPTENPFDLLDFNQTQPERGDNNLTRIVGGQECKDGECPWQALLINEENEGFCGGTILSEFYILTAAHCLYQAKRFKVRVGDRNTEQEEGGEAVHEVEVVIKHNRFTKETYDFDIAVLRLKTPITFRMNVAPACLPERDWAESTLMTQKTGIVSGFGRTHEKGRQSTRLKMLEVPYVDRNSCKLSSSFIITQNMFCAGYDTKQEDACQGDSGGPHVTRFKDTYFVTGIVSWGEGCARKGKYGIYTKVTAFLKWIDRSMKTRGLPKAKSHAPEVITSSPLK

[3] = molecular target: T1, free FIXa (activated Factor IX); assay: cell-based or functional assay
activated Factor X (FXa) = molecular target: T4, activated Factor X (FXa) (Homo sapiens (Human), UniProt P00742 41-179; P00742 235-488); assay: BLI, antibody on AHQ sensor
T4 construct: also called free FXa; factor Xa
T4 sequence (P00742 41-179, chain 1 of 2): as the sequence (P00742 41-179, chain 1 of 2) above
T4 sequence (P00742 235-488, chain 2 of 2): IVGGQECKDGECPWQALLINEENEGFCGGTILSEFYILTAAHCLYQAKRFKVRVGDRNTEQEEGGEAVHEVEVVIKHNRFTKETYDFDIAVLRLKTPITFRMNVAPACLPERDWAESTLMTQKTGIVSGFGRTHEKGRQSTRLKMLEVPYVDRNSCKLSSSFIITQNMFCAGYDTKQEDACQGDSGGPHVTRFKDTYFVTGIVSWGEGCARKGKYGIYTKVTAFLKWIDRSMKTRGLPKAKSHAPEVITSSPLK

Kd [1]: 2 nM | Kd [2]: 8 nM | Kd (FX zymogen): 20 nM | rate of substrate (ADG299) cleavage by FIXa (amidolytic activity) [3]: 3 fold
B1: BS-027125 (bispecific antibody, V domains shown)
VH 1: EVQLVESGGGLVKPGGSLRLSCAASGFTFGSYDMNWVRQAPGKGLEWVSSISSGESYIYYAESVKGRFTISRDNAKNSLYLQMNSLRAEDTAVYYCARDVGGYAGYYGMDVWGQGTTVTVSS
VL 1: not shown
VH 2: EVQLVQSGAEVKKPGESLKISCKGSGYSFTTYWIGWVRQMPGKGLEWMGIIYPGDSDTRYSPSFQGQVTISADKSISTAYLQWSSLKASDTAMYYCARGRFRPRGRFDYWGQGTLVTVSS
VL 2: EIVMTQSPATLSVSPGERATLSCRASQSVSSNLAWYQQKPGQAPRLLIYGASTRATGIPARFSGSGSGTEFTLTISSLQSEDFAVYYCQQLFNHPPTFGGGTKVEIK

binding result (activated Factor X (FXa)): no binding (tested: 250 nM)
B2: BIIB-12-917 (antibody, V domains shown)
VH: B1 VH 2
VL: B1 VL 2
notes: IgG
